Holding throughout (experiment): high-throughput RNA pulldown from lysate on Ni-NTA beads; HRP: 50 mM Tris pH 8, 150 mM NaCl, 1 mM beta-mercaptoethanol, 50 ug/ml BSA, 3 ug/ml yeast RNA, 0.5% heparin; ITC and FP: Tris pH 8, 200 mM KCl, 5% glycerol; MST: 50 mM Tris pH 8, 200 mM NaCl, 1 mM DTT, BSA, heparin, 0.05% Tween 20
Common to all, as to settings: tags: N-terminal His-eGFP

In data set [1] the target is T1, GFP-9S library array, motif 4 ND N98C;D124F (synthetic construct, N98C;D124F).
T1 chain: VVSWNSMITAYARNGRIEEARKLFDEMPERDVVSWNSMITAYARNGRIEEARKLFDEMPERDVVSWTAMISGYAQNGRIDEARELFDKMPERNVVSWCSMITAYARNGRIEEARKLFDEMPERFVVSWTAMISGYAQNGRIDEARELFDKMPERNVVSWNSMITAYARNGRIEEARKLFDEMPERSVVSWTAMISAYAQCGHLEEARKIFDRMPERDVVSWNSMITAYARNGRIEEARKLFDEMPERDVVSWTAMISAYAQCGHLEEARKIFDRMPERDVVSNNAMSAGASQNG

Data set [2] concerns the target T2, GFP-9S library array, motif 4 ND N98V;D124H (synthetic construct, N98V;D124H).
T2 chain: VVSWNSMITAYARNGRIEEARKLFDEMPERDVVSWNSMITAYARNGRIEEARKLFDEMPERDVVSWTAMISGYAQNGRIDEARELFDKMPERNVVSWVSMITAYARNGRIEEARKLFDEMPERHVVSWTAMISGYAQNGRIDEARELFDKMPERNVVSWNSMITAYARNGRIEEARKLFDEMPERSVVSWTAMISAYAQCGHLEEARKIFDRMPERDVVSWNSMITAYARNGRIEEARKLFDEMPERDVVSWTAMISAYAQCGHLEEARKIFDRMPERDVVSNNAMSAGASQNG

Data set [3] deals with T3, GFP-9S library array, motif 4 ND N98Y;D124L (synthetic construct, N98Y;D124L).
T3 chain: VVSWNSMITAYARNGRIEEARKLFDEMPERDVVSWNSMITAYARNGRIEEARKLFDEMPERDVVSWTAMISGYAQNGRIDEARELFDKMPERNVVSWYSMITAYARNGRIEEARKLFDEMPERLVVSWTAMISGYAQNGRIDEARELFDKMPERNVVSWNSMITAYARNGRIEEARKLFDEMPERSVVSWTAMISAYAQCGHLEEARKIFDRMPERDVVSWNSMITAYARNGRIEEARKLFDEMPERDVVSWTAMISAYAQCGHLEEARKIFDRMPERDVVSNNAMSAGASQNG

Data set [4] has as its target T4, GFP-9S library array, motif 4 ND N98K;D124S (synthetic construct, N98K;D124S).
T4 chain: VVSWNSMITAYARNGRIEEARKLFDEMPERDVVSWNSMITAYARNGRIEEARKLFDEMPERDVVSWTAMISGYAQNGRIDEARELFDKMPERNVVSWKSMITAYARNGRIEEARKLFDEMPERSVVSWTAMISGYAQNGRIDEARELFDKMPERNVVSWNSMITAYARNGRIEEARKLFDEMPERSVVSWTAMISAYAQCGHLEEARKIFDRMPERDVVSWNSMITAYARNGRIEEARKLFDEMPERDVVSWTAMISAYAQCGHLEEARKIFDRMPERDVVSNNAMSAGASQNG

Data set [5] has as its target T5, GFP-9S library array, motif 4 ND N98D;D124S (synthetic construct, N98D;D124S).
T5 chain: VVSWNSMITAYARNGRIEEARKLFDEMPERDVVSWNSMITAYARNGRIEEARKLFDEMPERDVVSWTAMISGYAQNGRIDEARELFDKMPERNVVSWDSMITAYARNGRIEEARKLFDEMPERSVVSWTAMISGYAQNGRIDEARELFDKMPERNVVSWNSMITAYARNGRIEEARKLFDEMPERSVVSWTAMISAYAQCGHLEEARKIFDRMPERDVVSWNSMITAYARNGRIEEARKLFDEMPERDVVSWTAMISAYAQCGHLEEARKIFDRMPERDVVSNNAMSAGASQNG

B1: IR-rpoA-U (ssRNA)
RNA: AUUAUACGUGA
What is called Kd is a measure of binding affinity in units of concentration. Read a low Kd as tighter binding. Consider B1, for which the Kd was determined as 317 nM in data set [1] (label: 5' IRDye 800CW); 219 nM in data set [2] (label: 5' IRDye 800CW); 199 nM in data set [3] (label: 5' IRDye 800CW); 40.8 nM in data set [4] (label: 5' IRDye 800CW); 470 nM in data set [5] (label: 5' IRDye 800CW).

B2: IR-rpoA-A (ssRNA)
RNA: AUUAAACGUGA
Turning to B2, the dissociation constant Kd in data set [1] (label: 5' IRDye 800CW) is 203 nM; in data set [2] (label: 5' IRDye 800CW) it was 209 nM; in data set [3] (label: 5' IRDye 800CW) it was 162 nM; in data set [4] (label: 5' IRDye 800CW), 120 nM; in data set [5] (label: 5' IRDye 800CW) it was 759 nM.

B3: Cy5-rpoA-G (ssRNA)
RNA: AUUAGACGUGA
On to B3, for which the Kd came out at 100 nM in data set [1] (label: 5' Cy5); 155 nM in data set [2] (label: 5' Cy5); 74.6 nM in data set [3] (label: 5' Cy5); 89.3 nM in data set [4] (label: 5' Cy5); 260 nM in data set [5] (label: 5' Cy5).

B4: Cy5-rpoA (ssRNA)
RNA: AUUACACGUGA
As for B4, the Kd in data set [1] (label: 5' Cy5) came to 126 nM; in data set [2] (label: 5' Cy5), 160 nM; in data set [3] (label: 5' Cy5), 89.7 nM; in data set [4] (label: 5' Cy5), 67.8 nM; in data set [5] (label: 5' Cy5) it was 401 nM.

(Values after paper PMC8809517, “Cofactor-independent RNA editing by a synthetic S-type PPR protein”.)
